Reference: patent US20090291890A1 (published 2009)
Values joined by “and” are separate entries in the source; they are usually repeats but may differ in a detail not shown here. Equal values may be shown once.

B1: A175S-FVIIa (enzyme)
chain: ANAFLEELRPGSLERECKEEQCSFEEAREIFKDAERTKLFWISYSDGDQCASSPCQNGGSCKDQLQSYICFCLPAFEGRNCETHKDDQLICVNENGGCEQYCSDHTGTKRSCRCHEGYSLLADGVSCTPTVEYPCGKIPILEKRNASKPQGRIVGGKVCPKGECPWQVLLLVNGSQLCGGTLINTIWVVSAAHCFDKIKNWRNLIAVLGEHDLSEHDGDEQSRRVAQVIIPSTYVPGTTNHDIALLRLHQPVVLTDHVVPLCLPERTFSERTLAFVRFSLVSGWGQLLDRGATALELMVLNVPRLMTQDCLQQSRKVGDSPNITEYMFCAGYSDGSKDSCKGDSGGPHATHYRGTWYLTGIVSWGQGCATVGHFGVYTRVSQYIEWLQKLMRSEPRPGVLLRAPFP
B2: Q286R/S222A-FVIIa (enzyme)
chain: ANAFLEELRPGSLERECKEEQCSFEEAREIFKDAERTKLFWISYSDGDQCASSPCQNGGSCKDQLQSYICFCLPAFEGRNCETHKDDQLICVNENGGCEQYCSDHTGTKRSCRCHEGYSLLADGVSCTPTVEYPCGKIPILEKRNASKPQGRIVGGKVCPKGECPWQVLLLVNGAQLCGGTLINTIWVVSAAHCFDKIKNWRNLIAVLGEHDLSEHDGDEQARRVAQVIIPSTYVPGTTNHDIALLRLHQPVVLTDHVVPLCLPERTFSERTLAFVRFSLVSGWGRLLDRGATALELMVLNVPRLMTQDCLQQSRKVGDSPNITEYMFCAGYSDGSKDSCKGDSGGPHATHYRGTWYLTGIVSWGQGCATVGHFGVYTRVSQYIEWLQKLMRSEPRPGVLLRAPFP
B3: Q286R/S222A/H257A-FVIIa (enzyme)
chain: ANAFLEELRPGSLERECKEEQCSFEEAREIFKDAERTKLFWISYSDGDQCASSPCQNGGSCKDQLQSYICFCLPAFEGRNCETHKDDQLICVNENGGCEQYCSDHTGTKRSCRCHEGYSLLADGVSCTPTVEYPCGKIPILEKRNASKPQGRIVGGKVCPKGECPWQVLLLVNGAQLCGGTLINTIWVVSAAHCFDKIKNWRNLIAVLGEHDLSEHDGDEQARRVAQVIIPSTYVPGTTNHDIALLRLHQPVVLTDAVVPLCLPERTFSERTLAFVRFSLVSGWGRLLDRGATALELMVLNVPRLMTQDCLQQSRKVGDSPNITEYMFCAGYSDGSKDSCKGDSGGPHATHYRGTWYLTGIVSWGQGCATVGHFGVYTRVSQYIEWLQKLMRSEPRPGVLLRAPFP
B4: T239V-FVIIa (enzyme)
chain: ANAFLEELRPGSLERECKEEQCSFEEAREIFKDAERTKLFWISYSDGDQCASSPCQNGGSCKDQLQSYICFCLPAFEGRNCETHKDDQLICVNENGGCEQYCSDHTGTKRSCRCHEGYSLLADGVSCTPTVEYPCGKIPILEKRNASKPQGRIVGGKVCPKGECPWQVLLLVNGAQLCGGTLINTIWVVSAAHCFDKIKNWRNLIAVLGEHDLSEHDGDEQSRRVAQVIIPSTYVPGTVNHDIALLRLHQPVVLTDHVVPLCLPERTFSERTLAFVRFSLVSGWGQLLDRGATALELMVLNVPRLMTQDCLQQSRKVGDSPNITEYMFCAGYSDGSKDSCKGDSGGPHATHYRGTWYLTGIVSWGQGCATVGHFGVYTRVSQYIEWLQKLMRSEPRPGVLLRAPFP
B5: T239I-FVIIa (enzyme)
chain: ANAFLEELRPGSLERECKEEQCSFEEAREIFKDAERTKLFWISYSDGDQCASSPCQNGGSCKDQLQSYICFCLPAFEGRNCETHKDDQLICVNENGGCEQYCSDHTGTKRSCRCHEGYSLLADGVSCTPTVEYPCGKIPILEKRNASKPQGRIVGGKVCPKGECPWQVLLLVNGAQLCGGTLINTIWVVSAAHCFDKIKNWRNLIAVLGEHDLSEHDGDEQSRRVAQVIIPSTYVPGTINHDIALLRLHQPVVLTDHVVPLCLPERTFSERTLAFVRFSLVSGWGQLLDRGATALELMVLNVPRLMTQDCLQQSRKVGDSPNITEYMFCAGYSDGSKDSCKGDSGGPHATHYRGTWYLTGIVSWGQGCATVGHFGVYTRVSQYIEWLQKLMRSEPRPGVLLRAPFP
B6: H257A/M298Q-FVIIa (enzyme)
chain: ANAFLEELRPGSLERECKEEQCSFEEAREIFKDAERTKLFWISYSDGDQCASSPCQNGGSCKDQLQSYICFCLPAFEGRNCETHKDDQLICVNENGGCEQYCSDHTGTKRSCRCHEGYSLLADGVSCTPTVEYPCGKIPILEKRNASKPQGRIVGGKVCPKGECPWQVLLLVNGAQLCGGTLINTIWVVSAAHCFDKIKNWRNLIAVLGEHDLSEHDGDEQSRRVAQVIIPSTYVPGTTNHDIALLRLHQPVVLTDAVVPLCLPERTFSERTLAFVRFSLVSGWGQLLDRGATALELQVLNVPRLMTQDCLQQSRKVGDSPNITEYMFCAGYSDGSKDSCKGDSGGPHATHYRGTWYLTGIVSWGQGCATVGHFGVYTRVSQYIEWLQKLMRSEPRPGVLLRAPFP
B7: S222A/H257A/Q286R/M298Q-FVIIa (enzyme)
chain: ANAFLEELRPGSLERECKEEQCSFEEAREIFKDAERTKLFWISYSDGDQCASSPCQNGGSCKDQLQSYICFCLPAFEGRNCETHKDDQLICVNENGGCEQYCSDHTGTKRSCRCHEGYSLLADGVSCTPTVEYPCGKIPILEKRNASKPQGRIVGGKVCPKGECPWQVLLLVNGAQLCGGTLINTIWVVSAAHCFDKIKNWRNLIAVLGEHDLSEHDGDEQARRVAQVIIPSTYVPGTTNHDIALLRLHQPVVLTDAVVPLCLPERTFSERTLAFVRFSLVSGWGRLLDRGATALELQVLNVPRLMTQDCLQQSRKVGDSPNITEYMFCAGYSDGSKDSCKGDSGGPHATHYRGTWYLTGIVSWGQGCATVGHFGVYTRVSQYIEWLQKLMRSEPRPGVLLRAPFP
B8: T239I/M298Q/H373F-FVIIa (enzyme)
chain: ANAFLEELRPGSLERECKEEQCSFEEAREIFKDAERTKLFWISYSDGDQCASSPCQNGGSCKDQLQSYICFCLPAFEGRNCETHKDDQLICVNENGGCEQYCSDHTGTKRSCRCHEGYSLLADGVSCTPTVEYPCGKIPILEKRNASKPQGRIVGGKVCPKGECPWQVLLLVNGAQLCGGTLINTIWVVSAAHCFDKIKNWRNLIAVLGEHDLSEHDGDEQSRRVAQVIIPSTYVPGTINHDIALLRLHQPVVLTDHVVPLCLPERTFSERTLAFVRFSLVSGWGQLLDRGATALELQVLNVPRLMTQDCLQQSRKVGDSPNITEYMFCAGYSDGSKDSCKGDSGGPHATHYRGTWYLTGIVSWGQGCATVGFFGVYTRVSQYIEWLQKLMRSEPRPGVLLRAPFP
B9: T239I/Q286R/M298Q/Q366N-FVIIa (enzyme)
chain: ANAFLEELRPGSLERECKEEQCSFEEAREIFKDAERTKLFWISYSDGDQCASSPCQNGGSCKDQLQSYICFCLPAFEGRNCETHKDDQLICVNENGGCEQYCSDHTGTKRSCRCHEGYSLLADGVSCTPTVEYPCGKIPILEKRNASKPQGRIVGGKVCPKGECPWQVLLLVNGAQLCGGTLINTIWVVSAAHCFDKIKNWRNLIAVLGEHDLSEHDGDEQSRRVAQVIIPSTYVPGTINHDIALLRLHQPVVLTDHVVPLCLPERTFSERTLAFVRFSLVSGWGRLLDRGATALELQVLNVPRLMTQDCLQQSRKVGDSPNITEYMFCAGYSDGSKDSCKGDSGGPHATHYRGTWYLTGIVSWGNGCATVGHFGVYTRVSQYIEWLQKLMRSEPRPGVLLRAPFP

Target: Factor X (Homo sapiens (Human)) (UniProt P00742)

Point of comparison: “T128N/P129A/S222A/T239V/H257A/Q286R/M298Q-FVIIa (enzyme)”, kcat/KM (M^-1s^-1), TF-dependent assay 1.21e+08 M⁻¹ s⁻¹. Against it:
- {Gla swap FIX/K43I}/Q286R/M298Q/Q366N-FVIIa (enzyme) — within 1.5-fold, 1.69e+08 M⁻¹ s⁻¹
- WT (NovoSeven-RT®) (enzyme) — 3.5-fold lower, 3.48e+07 M⁻¹ s⁻¹
- Gla swap FIX/S52A/S60A/Q286R/M298Q-FVIIa (enzyme) — within 1.5-fold, 1.8e+08 M⁻¹ s⁻¹
- T128N/P129A/M298Q-FVIIa (enzyme) — 1.9-fold lower, 6.29e+07 M⁻¹ s⁻¹
- T128N/P129A/Q286R/M298Q/Q366N-FVIIa (enzyme) — within 1.5-fold, 1.42e+08 M⁻¹ s⁻¹
- {Gla swap FIX/K43I}/T128N/P129A/Q286R/M298Q/Q366N-FVIIa (enzyme) — 2.1-fold higher, 2.52e+08 M⁻¹ s⁻¹
- WT (NovoSeven®) (enzyme) — 3-fold lower, 3.98e+07 M⁻¹ s⁻¹
- {Gla swap FIX/M19K/E40L/K43I/Q44S}/Q286R/M298Q-FVIIa (enzyme) — the same, 1.21e+08 M⁻¹ s⁻¹
- T128N/P129A/T239I/Q286R/M298Q/H373F-FVIIa (enzyme) — within 1.5-fold, 1.3e+08 M⁻¹ s⁻¹
- T128N/P129A/T239I/Q286R/M298Q-FVIIa (enzyme) — within 1.5-fold, 8.17e+07 M⁻¹ s⁻¹
- T128N/P129A/T239V/Q286R/M298Q-FVIIa (enzyme) — within 1.5-fold, 1.04e+08 M⁻¹ s⁻¹
- T239V/Q286R-FVIIa (enzyme) — within 1.5-fold, 8.84e+07 M⁻¹ s⁻¹
- T128N/P129A/M298Q/H373F-FVIIa (enzyme) — 2-fold lower, 6.07e+07 M⁻¹ s⁻¹
- {Gla swap FIX/K43I}/T128N/P129A/Q286R/M298Q-FVIIa (enzyme) — 2.2-fold higher, 2.71e+08 M⁻¹ s⁻¹
- T128N/P129A/T239V/Q286R/M298Q/H373F-FVIIa (enzyme) — 2-fold higher, 2.36e+08 M⁻¹ s⁻¹
- B1 — 5.7-fold lower, 2.11e+07 M⁻¹ s⁻¹
- B2 — within 1.5-fold, 1.11e+08 M⁻¹ s⁻¹
- B3 — 1.7-fold lower, 6.98e+07 M⁻¹ s⁻¹
- B4 — 2.6-fold lower, 4.64e+07 M⁻¹ s⁻¹
- B5 — 4.6-fold lower, 2.62e+07 M⁻¹ s⁻¹
- B6 — 7.2-fold lower, 1.67e+07 M⁻¹ s⁻¹
- B7 — within 1.5-fold, 1.65e+08 M⁻¹ s⁻¹

Point of comparison: “WT (NovoSeven®) recombinant human FVIIa (enzyme)”, kcat/KM, TF-independent assay 9.8 M⁻¹ s⁻¹. Against it:
- {Gla swap FIX/K43I}/Q286R/M298Q/Q366N-FVIIa (enzyme) — 8.7-fold higher, 84.9 M⁻¹ s⁻¹
- WT (NovoSeven-RT®) FVIIa (enzyme) — within 1.5-fold, 12.4 M⁻¹ s⁻¹
- Gla swap FIX/S222A/T239I/Q286R-FVIIa (enzyme) — 2.1-fold higher, 20.3 M⁻¹ s⁻¹
- Gla swap FIX/S52A/S60A/Q286R/M298Q-FVIIa (enzyme) — 100-fold higher, 989 M⁻¹ s⁻¹
- T128N/P129A/M298Q-FVIIa (enzyme) — 9.3-fold higher, 90.8 M⁻¹ s⁻¹
- T128N/P129A/Q286R/M298Q/Q366N-FVIIa (enzyme) — 6.6-fold higher, 64.6 M⁻¹ s⁻¹
- M298Q-FVIIa (enzyme) — 7.1-fold higher, 69.9 M⁻¹ s⁻¹
- {Gla swap FIX/K43I}/T128N/P129A/Q286R/M298Q/Q366N-FVIIa (enzyme) — 22-fold higher, 218 M⁻¹ s⁻¹
- T128N/P129A/T239I/Q286R/M298Q/H373F-FVIIa (enzyme) — 12-fold higher, 113 M⁻¹ s⁻¹
- T128N/P129A/T239I/Q286R/M298Q-FVIIa (enzyme) — 7.9-fold higher, 77.8 M⁻¹ s⁻¹
- T128N/P129A/S222A/T239V/H257A/Q286R/M298Q-FVIIa (enzyme) — 18-fold higher, 179 M⁻¹ s⁻¹
- T128N/P129A/T239V/Q286R/M298Q-FVIIa (enzyme) — 23-fold higher, 230 M⁻¹ s⁻¹
- Gla swap FIX/S222A/H257S/Q286R-FVIIa (enzyme) — 2.1-fold higher, 20.5 M⁻¹ s⁻¹
- T239V/Q286R-FVIIa (enzyme) — within 1.5-fold, 11.8 M⁻¹ s⁻¹
- T128N/P129A/M298Q/H373F-FVIIa (enzyme) — 9.3-fold higher, 91.6 M⁻¹ s⁻¹
- {Gla swap FIX/K43I}/T128N/P129A/Q286R/M298Q-FVIIa (enzyme) — 40-fold higher, 389 M⁻¹ s⁻¹
- T128N/P129A/T239V/Q286R/M298Q/H373F-FVIIa (enzyme) — 30-fold higher, 290 M⁻¹ s⁻¹
- B3 — 2.2-fold higher, 21.3 M⁻¹ s⁻¹
- B7 — 35-fold higher, 345 M⁻¹ s⁻¹

With M298Q-FVIIa (enzyme) the kcat/KM (M^-1s^-1), TF-dependent assay was 6.76e+07 M⁻¹ s⁻¹ and 7.46e+07 M⁻¹ s⁻¹.

Point of comparison: B8, kcat/KM, TF-dependent assay 3.47e+07 M⁻¹ s⁻¹. Against it:
- T128N/P129A/Q286R/M298Q/Q366N/H373F-FVIIa (enzyme) — 3.8-fold higher, 1.33e+08 M⁻¹ s⁻¹
- B9 — 2.1-fold higher, 7.4e+07 M⁻¹ s⁻¹

Target: Factor X (FX) (Homo sapiens (Human)) (UniProt P00742)
Sequence (P00742 41-488 limits assumed): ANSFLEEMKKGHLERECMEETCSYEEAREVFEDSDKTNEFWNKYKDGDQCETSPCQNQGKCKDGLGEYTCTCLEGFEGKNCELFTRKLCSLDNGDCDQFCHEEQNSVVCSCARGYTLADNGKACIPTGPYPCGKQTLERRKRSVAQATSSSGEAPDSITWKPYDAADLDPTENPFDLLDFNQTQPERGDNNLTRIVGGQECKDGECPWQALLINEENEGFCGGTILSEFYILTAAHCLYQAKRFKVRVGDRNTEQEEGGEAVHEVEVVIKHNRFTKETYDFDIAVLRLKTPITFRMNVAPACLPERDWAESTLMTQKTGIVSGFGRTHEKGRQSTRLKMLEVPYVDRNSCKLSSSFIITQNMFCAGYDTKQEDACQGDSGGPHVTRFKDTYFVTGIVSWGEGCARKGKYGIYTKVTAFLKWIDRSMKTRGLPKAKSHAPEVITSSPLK

Point of comparison: FVIIa variant S52A/S60A (enzyme), kcat/KM, TF-Dependent Indirect Assay 1.05e+08 M⁻¹ s⁻¹. Against it:
- FVIIa variant T128N/P129A (enzyme) — 1.8-fold lower, 5.96e+07 M⁻¹ s⁻¹
- FVIIa variant A122N/G124S/A175S (enzyme) — 3.8-fold lower, 2.79e+07 M⁻¹ s⁻¹
- FVIIa variant K109N (enzyme) — 1.8-fold lower, 5.97e+07 M⁻¹ s⁻¹
- FVIIa variant S222A (enzyme) — 1.8-fold lower, 5.73e+07 M⁻¹ s⁻¹
- FVIIa variant Q286R (enzyme) — within 1.5-fold, 1.11e+08 M⁻¹ s⁻¹
- FVIIa variant S119N/L121S/A175S (enzyme) — 3.6-fold lower, 2.92e+07 M⁻¹ s⁻¹
- FVIIa variant Q286R/M298Q/Gla Swap FIX (enzyme) — 2.5-fold higher, 2.64e+08 M⁻¹ s⁻¹
